Test results: paper PMC7672443, “Structural basis of the XPB helicase–Bax1 nuclease complex interacting with the repair bubble DNA” (Nucleic Acids Research, 2020)
Substitutions are numbered along the chain they refer to.

Assays:
[1] = biological target: T1, StXPB;StBax1ΔC (Sulfurisphaera tokodaii;Sulfurisphaera …, UniProt Q970I2;Q970I1 2-439;2-373, |); test: crystal structure 3.55 Å; 10 mM MgCl2, MES pH 5.3, MPD; ATP-free; EMSA: 25 mM Tris-Cl pH 7.5, 100 mM NaCl, 5% glycerol, 1 mM DTT, room temperature 40 min; 0.8 uM forked DNA or 0.3 uM bubble DNA; 4% TBE native gel, ethidium bromide; conditions: protein: recombinant;recombinant; tags: N-terminal His8 (PreScission; removed);none stated (pET15b; copurified with His8-XPB); copies: 1;1; 24 bp with 6 nt unpaired region; 6 bp short arm unwound in crystal
T1 sequence 1: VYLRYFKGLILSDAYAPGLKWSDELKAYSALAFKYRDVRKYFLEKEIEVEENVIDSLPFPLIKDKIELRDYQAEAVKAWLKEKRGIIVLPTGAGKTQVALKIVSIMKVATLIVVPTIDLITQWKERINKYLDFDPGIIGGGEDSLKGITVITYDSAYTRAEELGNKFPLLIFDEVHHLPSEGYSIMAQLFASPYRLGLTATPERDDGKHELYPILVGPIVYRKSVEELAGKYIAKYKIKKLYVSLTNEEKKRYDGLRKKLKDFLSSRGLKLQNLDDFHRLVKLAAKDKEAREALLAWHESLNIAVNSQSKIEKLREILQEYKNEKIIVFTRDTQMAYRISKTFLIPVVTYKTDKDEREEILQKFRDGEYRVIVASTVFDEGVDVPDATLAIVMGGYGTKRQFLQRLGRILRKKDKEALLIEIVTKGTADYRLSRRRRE
T1 sequence 2: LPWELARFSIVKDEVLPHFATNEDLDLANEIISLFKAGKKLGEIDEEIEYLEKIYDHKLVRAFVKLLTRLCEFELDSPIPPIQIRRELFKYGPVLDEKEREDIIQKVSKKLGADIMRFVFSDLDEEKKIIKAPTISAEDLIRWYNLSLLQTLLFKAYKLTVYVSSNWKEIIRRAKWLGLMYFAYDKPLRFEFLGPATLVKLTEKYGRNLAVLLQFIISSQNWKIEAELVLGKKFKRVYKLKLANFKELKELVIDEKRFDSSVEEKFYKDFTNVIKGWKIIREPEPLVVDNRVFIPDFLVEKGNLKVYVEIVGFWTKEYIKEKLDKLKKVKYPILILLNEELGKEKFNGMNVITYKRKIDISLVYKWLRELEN

[2] = biological target: T2, StXPB;StBax1 (Sulfurisphaera tokodaii;Sulfurisphaera …, UniProt Q970I2;Q970I1 2-439;1-481, |); test: EMSA; EMSA: 25 mM Tris-Cl pH 7.5, 100 mM NaCl, 5% glycerol, 1 mM DTT, room temperature 40 min; 0.8 uM forked DNA or 0.3 uM bubble DNA; 4% TBE native gel, ethidium bromide; conditions: protein: recombinant;recombinant; tags: N-terminal His8 (PreScission; removed);; copies: 1;1; fork: 22 bp duplex, 10 nt arms
T2 sequence 1: T1 sequence 1
T2 sequence 2: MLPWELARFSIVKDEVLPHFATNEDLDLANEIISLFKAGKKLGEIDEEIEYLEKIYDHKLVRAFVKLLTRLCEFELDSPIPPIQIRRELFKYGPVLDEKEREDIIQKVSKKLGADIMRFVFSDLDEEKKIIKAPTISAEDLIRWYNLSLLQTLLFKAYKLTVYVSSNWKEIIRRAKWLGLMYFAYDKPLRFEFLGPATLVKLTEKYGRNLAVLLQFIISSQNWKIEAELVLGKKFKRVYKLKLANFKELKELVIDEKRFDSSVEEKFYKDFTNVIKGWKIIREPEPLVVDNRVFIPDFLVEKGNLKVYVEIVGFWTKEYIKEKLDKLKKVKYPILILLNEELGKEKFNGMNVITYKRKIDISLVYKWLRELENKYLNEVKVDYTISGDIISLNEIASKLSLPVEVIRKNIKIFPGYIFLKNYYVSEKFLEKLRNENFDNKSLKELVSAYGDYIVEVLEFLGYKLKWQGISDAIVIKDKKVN

[3] = biological target: T1, StXPB;StBax1ΔC; test: as above; conditions: protein: recombinant;recombinant; tags: N-terminal His8 (PreScission; removed);none stated (pET15b; copurified with His8-XPB); copies: 1;1; fork: 22 bp duplex, 10 nt arms
[4] = biological target: human XPB;human p52;human p8;human XPA (human;human;human;human, UniProt P19447;Q92759;Q6ZYL4;P23025 1-782;1-462;1-71;1-273, |||); test: EMSA; stable complex; EMSA: 25 mM Tris-Cl pH 7.5, 100 mM NaCl, 5% glycerol, 1 mM DTT, room temperature 40 min; 0.8 uM forked DNA or 0.3 uM bubble DNA; 4% TBE native gel, ethidium bromide; conditions: protein: recombinant;recombinant;recombinant;recombinant; tags: N-terminal His6 (PreScission; removed);;;N-terminal His6-SUMO (removed); copies: 1;1;1;1; fork: 22 bp duplex, 10 nt arms
[5] = biological target: T3, StXPB F278A (Sulfurisphaera tokodaii, UniProt Q970I2 2-439, F278A); test: EMSA; no noticeable effect versus WT; EMSA: 25 mM Tris-Cl pH 7.5, 100 mM NaCl, 5% glycerol, 1 mM DTT, room temperature 40 min; 0.8 uM forked DNA or 0.3 uM bubble DNA; 4% TBE native gel, ethidium bromide; conditions: protein: recombinant; tags: N-terminal His8 (removed); 32 nt strands, blunt, internal 5 nt T:T mismatch bubble
T3 sequence: T1 sequence 1 with F277A

Sequence of human XPB;human p52;human p8;human XPA (P19447 whole entry, chain 1 of 4): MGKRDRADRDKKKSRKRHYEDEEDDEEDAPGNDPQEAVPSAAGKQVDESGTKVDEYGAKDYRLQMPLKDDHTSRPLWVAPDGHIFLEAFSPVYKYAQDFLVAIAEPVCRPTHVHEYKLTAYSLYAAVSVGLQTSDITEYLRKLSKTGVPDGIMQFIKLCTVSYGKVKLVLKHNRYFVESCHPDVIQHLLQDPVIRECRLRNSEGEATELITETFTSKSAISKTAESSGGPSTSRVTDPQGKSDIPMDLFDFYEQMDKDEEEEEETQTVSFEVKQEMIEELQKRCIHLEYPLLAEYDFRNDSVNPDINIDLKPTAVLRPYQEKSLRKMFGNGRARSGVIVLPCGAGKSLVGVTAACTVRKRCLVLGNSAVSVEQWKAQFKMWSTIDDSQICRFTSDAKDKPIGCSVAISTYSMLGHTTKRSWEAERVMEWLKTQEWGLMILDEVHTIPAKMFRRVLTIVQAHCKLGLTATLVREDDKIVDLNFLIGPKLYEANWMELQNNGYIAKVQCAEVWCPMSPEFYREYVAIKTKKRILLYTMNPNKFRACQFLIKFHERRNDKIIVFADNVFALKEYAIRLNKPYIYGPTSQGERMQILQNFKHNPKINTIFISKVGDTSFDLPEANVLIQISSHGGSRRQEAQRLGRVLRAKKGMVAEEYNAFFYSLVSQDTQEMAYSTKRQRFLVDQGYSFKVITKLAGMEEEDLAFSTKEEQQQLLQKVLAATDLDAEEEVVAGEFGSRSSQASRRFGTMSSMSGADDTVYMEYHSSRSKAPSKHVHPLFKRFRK
Sequence of human XPB;human p52;human p8;human XPA (Q92759 whole entry, chain 2 of 4): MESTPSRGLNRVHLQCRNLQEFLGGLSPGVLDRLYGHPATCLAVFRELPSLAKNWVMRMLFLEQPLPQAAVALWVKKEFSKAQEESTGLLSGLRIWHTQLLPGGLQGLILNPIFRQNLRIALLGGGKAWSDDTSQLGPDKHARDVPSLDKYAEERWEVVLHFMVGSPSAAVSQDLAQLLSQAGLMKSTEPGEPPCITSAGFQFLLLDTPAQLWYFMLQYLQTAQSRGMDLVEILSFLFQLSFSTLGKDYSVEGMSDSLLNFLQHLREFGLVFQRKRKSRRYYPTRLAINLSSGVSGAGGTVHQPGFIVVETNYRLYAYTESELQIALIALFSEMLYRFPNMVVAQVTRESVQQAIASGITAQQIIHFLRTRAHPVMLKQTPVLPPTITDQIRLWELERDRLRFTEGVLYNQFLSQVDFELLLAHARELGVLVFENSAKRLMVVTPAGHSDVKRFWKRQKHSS
Sequence of human XPB;human p52;human p8;human XPA (Q6ZYL4 whole entry, chain 3 of 4): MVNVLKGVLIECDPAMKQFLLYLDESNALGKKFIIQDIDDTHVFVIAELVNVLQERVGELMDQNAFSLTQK
Sequence of human XPB;human p52;human p8;human XPA (P23025 whole entry, chain 4 of 4): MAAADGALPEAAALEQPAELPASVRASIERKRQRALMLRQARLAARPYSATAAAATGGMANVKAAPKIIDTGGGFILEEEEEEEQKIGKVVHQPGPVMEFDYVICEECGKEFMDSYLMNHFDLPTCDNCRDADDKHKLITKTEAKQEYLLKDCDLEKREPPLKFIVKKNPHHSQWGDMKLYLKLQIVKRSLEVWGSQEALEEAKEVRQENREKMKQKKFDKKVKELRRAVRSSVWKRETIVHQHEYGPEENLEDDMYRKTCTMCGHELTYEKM

B1: bubble-6 DNA (crystal) (dsDNA)
DNA 1: TTGACTCAACATCCTTTGCTACAA
DNA 2: ATTGTAGGTTTCCATGTTGAGTCA
binding result [1]: binds

B2: forked DNA (dsDNA)
DNA 1: TAGTCACAGCTGATTGCGCTCTGCTCCATAGT
DNA 2: TGATACTTCGAGAGCGCAATCAGCTGTGACTA
binding result [2]: binds
binding result [3]: binds
binding result [4]: binds

B3: bubble-5 DNA (dsDNA)
DNA 1: B2 DNA 1 with G16T, C17T, G18T
DNA 2: ACTATGGAGCAGAGTTTTTTCAGCTGTGACTA
binding result [5]: binds
